# Measured values from patent publication US20250257126A1 (CAMBRIDGE ENTERPRISE, published 2025).
# T1: murine LGR5 transgene (mouse, UniProt Q9Z1P4 22-907)
# T1 construct: whole, on cells; Overexpressed in HEK293T cells with N-terminal HA tag, V2 receptor tail and eGFP; also tested as lysate; also called mLGR5; mLGR5-eGFP
# T1 sequence (looked up): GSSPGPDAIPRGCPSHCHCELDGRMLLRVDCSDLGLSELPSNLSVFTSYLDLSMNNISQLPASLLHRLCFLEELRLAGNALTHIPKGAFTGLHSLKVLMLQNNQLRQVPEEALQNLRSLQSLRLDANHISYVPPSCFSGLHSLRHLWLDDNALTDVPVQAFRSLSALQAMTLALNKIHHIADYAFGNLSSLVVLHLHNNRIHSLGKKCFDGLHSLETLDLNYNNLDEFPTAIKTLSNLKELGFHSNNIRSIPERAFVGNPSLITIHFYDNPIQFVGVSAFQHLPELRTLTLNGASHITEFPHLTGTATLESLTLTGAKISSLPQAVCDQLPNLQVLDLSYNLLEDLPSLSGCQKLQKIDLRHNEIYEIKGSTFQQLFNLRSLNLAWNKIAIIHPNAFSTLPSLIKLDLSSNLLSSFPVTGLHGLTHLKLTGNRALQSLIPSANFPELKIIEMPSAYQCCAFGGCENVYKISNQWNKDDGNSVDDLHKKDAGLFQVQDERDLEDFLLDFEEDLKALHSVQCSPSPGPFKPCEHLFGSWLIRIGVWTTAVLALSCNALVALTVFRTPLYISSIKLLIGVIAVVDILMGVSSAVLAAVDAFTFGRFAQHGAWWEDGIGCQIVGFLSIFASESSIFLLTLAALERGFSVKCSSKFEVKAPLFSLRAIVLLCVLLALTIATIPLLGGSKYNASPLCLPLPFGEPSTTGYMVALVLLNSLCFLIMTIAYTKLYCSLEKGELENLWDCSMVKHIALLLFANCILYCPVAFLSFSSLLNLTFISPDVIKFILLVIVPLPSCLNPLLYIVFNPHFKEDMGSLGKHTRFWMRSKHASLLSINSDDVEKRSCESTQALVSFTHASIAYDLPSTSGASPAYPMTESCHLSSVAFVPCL
# T2: human LGR5-eGFP transgene (human, UniProt O75473 22-907)
# T2 construct: Tested on live or fixed cells and as cell lysates on western blots; also called hLGR5-eGFP; LGR5-GFP
# T2 sequence: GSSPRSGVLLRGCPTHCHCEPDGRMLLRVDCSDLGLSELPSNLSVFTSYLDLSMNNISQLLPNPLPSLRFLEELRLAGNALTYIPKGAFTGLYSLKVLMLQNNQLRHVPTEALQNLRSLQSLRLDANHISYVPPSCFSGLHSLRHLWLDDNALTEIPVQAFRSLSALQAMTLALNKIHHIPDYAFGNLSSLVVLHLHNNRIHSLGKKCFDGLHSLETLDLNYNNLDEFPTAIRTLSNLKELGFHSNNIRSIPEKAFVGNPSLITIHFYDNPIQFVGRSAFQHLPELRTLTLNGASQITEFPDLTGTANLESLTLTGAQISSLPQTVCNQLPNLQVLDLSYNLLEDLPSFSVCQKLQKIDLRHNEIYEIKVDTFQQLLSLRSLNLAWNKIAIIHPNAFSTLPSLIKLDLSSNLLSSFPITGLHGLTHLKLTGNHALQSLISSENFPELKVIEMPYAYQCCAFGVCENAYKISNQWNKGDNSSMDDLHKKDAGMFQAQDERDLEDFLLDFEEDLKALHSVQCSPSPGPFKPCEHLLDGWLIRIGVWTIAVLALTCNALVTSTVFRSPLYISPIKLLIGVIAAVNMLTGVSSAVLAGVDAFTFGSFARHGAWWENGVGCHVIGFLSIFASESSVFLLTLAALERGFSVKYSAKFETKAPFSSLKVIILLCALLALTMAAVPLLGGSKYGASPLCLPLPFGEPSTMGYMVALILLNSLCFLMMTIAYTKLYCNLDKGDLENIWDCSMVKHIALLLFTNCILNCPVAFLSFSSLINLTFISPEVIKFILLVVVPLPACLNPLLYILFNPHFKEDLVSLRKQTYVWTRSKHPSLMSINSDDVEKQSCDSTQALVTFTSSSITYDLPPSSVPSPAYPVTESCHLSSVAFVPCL
# T3: murine LGR6 transgene (mouse, UniProt Q3UVD5 23-967)
# T3 construct: whole, on cells; also called mLGR6
# T3 sequence (looked up): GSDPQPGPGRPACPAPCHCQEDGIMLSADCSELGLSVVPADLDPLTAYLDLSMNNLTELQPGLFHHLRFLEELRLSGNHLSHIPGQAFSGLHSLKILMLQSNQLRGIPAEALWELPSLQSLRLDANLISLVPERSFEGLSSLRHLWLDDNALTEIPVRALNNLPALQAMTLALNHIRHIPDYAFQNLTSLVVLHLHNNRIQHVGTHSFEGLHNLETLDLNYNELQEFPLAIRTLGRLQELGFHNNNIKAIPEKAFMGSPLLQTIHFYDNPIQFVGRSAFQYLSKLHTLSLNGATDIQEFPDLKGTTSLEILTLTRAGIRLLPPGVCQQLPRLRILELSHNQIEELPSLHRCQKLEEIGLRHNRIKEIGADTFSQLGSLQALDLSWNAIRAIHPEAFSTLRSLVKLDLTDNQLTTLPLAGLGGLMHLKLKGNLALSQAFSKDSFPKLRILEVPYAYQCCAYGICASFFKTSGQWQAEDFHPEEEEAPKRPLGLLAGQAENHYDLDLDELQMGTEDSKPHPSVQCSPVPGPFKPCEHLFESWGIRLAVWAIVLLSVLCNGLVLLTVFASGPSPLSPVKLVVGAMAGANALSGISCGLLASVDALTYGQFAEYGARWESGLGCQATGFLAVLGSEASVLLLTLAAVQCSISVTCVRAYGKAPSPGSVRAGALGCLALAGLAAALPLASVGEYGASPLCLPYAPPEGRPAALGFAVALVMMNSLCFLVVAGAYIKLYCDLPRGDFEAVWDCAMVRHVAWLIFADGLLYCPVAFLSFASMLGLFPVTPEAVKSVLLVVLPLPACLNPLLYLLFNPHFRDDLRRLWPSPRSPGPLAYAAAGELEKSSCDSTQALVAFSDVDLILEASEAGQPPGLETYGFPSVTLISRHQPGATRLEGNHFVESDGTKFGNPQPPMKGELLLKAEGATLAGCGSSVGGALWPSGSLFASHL
# B1: α-LGR5 clone 4 (antibody, mouse IgG2b, kappa, V domains shown)
# VH: QVQLQQPGAELVKPGASVKLSCKASGYTFTDYWMQWVKQRPGQGLEWIGEIDPSDSYTNYNQKFQGKATLTVDTSSSTAYIQLSSLTSDDSAVYYCARSLSGSVDYWGQGTTLTVSS
# VL: DIQMTQTTSSLSASLGDRVTISCRASQDISNRLNWYQQKPDGTVKLLISYRSRLQSGVPSRFSGSGSGTDYSLTITNLEQEDIATYFCQQGNTLPPTFGGGTKLEVRR
# notes: Murine monoclonal antibody from hybridoma; also called hybridoma clone 4; antibody 4
# B2: α-LGR5 variant 4 (antibody, human IgG1, kappa, V domains shown)
# VH: QVQLVQSGAEVKKPGASVKVSCKASGYTFTNYWMQWVRQAPGQGLEWIGEIDPSDSYTNYNQKFQGRVTLTVDTSTSTAYMELSSLRSEDTAVYYCARSLSGYVDYWGQGTTVTVSS
# VL: EIVMTQSPATLSLSPGERATLSCRASQDISNRLNWYQQKPGQAVRLLISYRSRRHTGIPARFSGSGSGTDYTLTISSLEPEDFAVYYCQQGNSLPPTFGGGTKLEIKR
# notes: Humanized antibody; also called α-LGR5v4; clone 2.4
# B3: hybridoma clone 12 (antibody, V domains shown)
# VH: EVQLQQSGPELVKPGASVKISCKASGYTFTDYYMNWVKQSHGKSLEWIGDINPNNGGTIYNQKFKGKATLTVDKSSSTAYMELRSLTSEDSAVYYCASGYLFDYWGPGTTLTVSS
# VL: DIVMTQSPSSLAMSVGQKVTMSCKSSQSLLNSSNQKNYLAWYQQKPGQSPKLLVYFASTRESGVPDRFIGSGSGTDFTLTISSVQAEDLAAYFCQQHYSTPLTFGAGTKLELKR
# notes: Murine antibody; also called antibody 12
# Columns and labels:
# murine LGR5 transgene = target: T1, murine LGR5 transgene; assay: western blot of lysates of HEK293T cells expressing mLGR5, hLGR5 or cynoLGR5 transgenes, probed with hybridoma clone 4
# [1] = target: T2, human LGR5-eGFP transgene; assay: as above
# murine LGR6 transgene = target: T3, murine LGR6 transgene; assay: indirect immunofluorescence on HEK293T cells expressing human and murine LGR family transgenes (FIG. 14B)
# [2] = target: T2, human LGR5-eGFP transgene; assay: western blot of HEK293T lysates expressing the human LGR family transgenes
binder,measurement,setting,value
B1,binding result,murine LGR5 transgene,no binding
same,binding result,[1],binds
B2,binding result,murine LGR6 transgene,no binding
B3,binding result,[2],binds
